In patent US20210347873A1 (SHANGHAI PHARMAEXPLORER, published 2021):

B1: 67A2E1D10 (antibody, V domains shown)
VH: EVQLQQSGAELVKPGASVKLSCTASGFNIKNYYMHWVKQRTEEGLEWIGRIDPEDGETKYAPKFQAKATITADTSSNTAYLQLSSLTSEDTAVYFCARKGYYGNYGAWFAYWGQGTLVTVSA
VL: DIQMTQSPASLSVSVGETVTITCRASEDLYSNLAWYQQKQGKSPQLLVYAATFLADGVPSRFSGSGSGTQYSLKINSLQSEDFGNYYCQHFWGTPPTFGGGTKLEIK
notes: Mouse hybridoma monoclonal antibody purified on Protein G
B2: 20D1B6E9E5 (antibody, V domains shown)
VH: EVQLQQSVAELVRPGASVKLSCTASDFNIKNTYIHWVKQRPEQGLEWIGRIDPVNGNTKYAPKFQDKATIIVDTYSNTAYLQLSSLASEDTAVYYCARWPITTIVATDWYFDVWGTGTTVTVSS
VL: DVLMTQTQLALPVRLGEQASISCRSSQSIVNSNGNTYLEWYLQKPGQSPKLLIYKVSNRFSGVPDRFSGSGSGTDFTLKISRVEAEDLGVYYCFQGSHVPWTFGGGTKLEIK
notes: as for B1
B3: 78C11D2D12 (antibody, V domains shown)
VH: QVQLQQSGAELVRPGTSVKISCKASGYAFTNYWLGWVKQRPGHGLEWIGDIYPGSGNTYYNEKFKGKATLTADKSSSTAYMQLSSLTSEDSAVFFCAAYLYAMDYWGQGTSVTVSS
VL: QIVLTQSPAIMSASPGEKVTITCSASSSVSYMHWFQQKPGTSPKLWIYSASNLASGVPARFSGSGSGTSYSLTISRMEAEDAATYYCQQRGSYPFTFGSGTKLEIK
notes: as for B1

Molecular target: T1, cynomolgus BLyS (full length, arginine to histidine at position 132) on CHO-K1 cells (cynomolgus, UniProt Q9Y275 1-285 (human entry))
T1 construct: also called cyno BLyS; CHO-K1 cynoBLyS
T1 chain: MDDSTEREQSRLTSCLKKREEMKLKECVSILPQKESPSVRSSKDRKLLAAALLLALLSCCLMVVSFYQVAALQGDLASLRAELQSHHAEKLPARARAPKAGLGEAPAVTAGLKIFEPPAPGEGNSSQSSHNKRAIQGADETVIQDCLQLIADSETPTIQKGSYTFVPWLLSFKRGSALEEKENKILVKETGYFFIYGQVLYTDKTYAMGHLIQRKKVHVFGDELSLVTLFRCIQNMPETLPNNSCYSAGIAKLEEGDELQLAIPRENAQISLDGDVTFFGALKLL
Assay: flow cytometry, CHO-K1 cynoBLyS cells, antibody 0 nM
Description: (§1) The medium was aspirated completely, and the cells were rinsed once with PBS buffer (purchased from Invitrogen) and then treated with cell dispersion solution (TrypLE™ Express Enzyme, purchased from Life technology) and collected. The detailed steps are as follows: the cells were rinsed once with PBS buffer, after counting, the cells were diluted to 2×10⁶ cells/ml with PBS buffer, blocked with 2% (w/w) fetal bovine serum and incubated on ice for 30 minutes. 200 μL of which per well was aliquoted into a 96-well FACS plate and centrifuged at 2000 rpm at 4° C., then each 100 μL of the lead antibodies obtained from Embodiment 1 and 2 were aliquoted into each well and incubated on ice for 1 hour. […] After centrifuged and rinsed 3 times with FACS buffer, cells were suspended with 200 μL of FACS buffer and the results were detected and analyzed by FACS (FACS Calibur, purchased from BD). It was shown in Tables 12-13 that the lead antibody could bind to human BLyS protein on the cell surface and the lead antibody could cross-react with cynomolgus BLyS. The data in the table is MFI, the average fluorescence intensity of the cell population.
For B1, the MFI was 20.3 MFI.
With B2 the MFI was 19.8 MFI.
B3 was tested, and the MFI was 20.2 MFI.

Molecular target: T1, cynomolgus BLyS (full length, arginine …)
Assay: flow cytometry, CHO-K1 cynoBLyS cells, antibody 0.00427 nM
Description: as §1
For B1, the MFI was 24.7 MFI.
B2 gave an MFI of 50.4 MFI.
In the case of B3, the MFI is reported as 37.7 MFI.

These binders were tested against T2, human BLyS (full length, arginine to histidine at position 132) on CHO-K1 cells (human, UniProt Q9Y275 1-285) (assay: flow cytometry, CHO-K1 hBLyS cells, antibody 0.0213 nM).
T2 construct: also called hBLyS; CHO-K1 hBLyS
T2 sequence (Q9Y275 whole entry R130H): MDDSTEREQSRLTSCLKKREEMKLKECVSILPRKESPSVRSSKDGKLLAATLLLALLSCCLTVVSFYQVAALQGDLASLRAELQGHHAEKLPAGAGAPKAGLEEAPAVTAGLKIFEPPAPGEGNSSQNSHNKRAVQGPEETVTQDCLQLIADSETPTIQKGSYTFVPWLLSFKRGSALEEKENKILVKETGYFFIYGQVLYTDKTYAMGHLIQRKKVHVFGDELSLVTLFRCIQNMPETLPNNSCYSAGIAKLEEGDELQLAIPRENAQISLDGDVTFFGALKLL
Description: as §1
With B1 the MFI was 37.1 MFI.
In the case of B2, the MFI is reported as 83.6 MFI.
Binder B3 has an MFI of 61.3 MFI.

The binders below were run against T2, human BLyS (full length, arginine to …) (assay: flow cytometry, CHO-K1 hBLyS cells, antibody 0 nM).
Description: as §1
With B1 the MFI was 31.2 MFI.
Work on B2 yielded an MFI of 31.8 MFI.
Binder B3 has an MFI of 31.2 MFI.

What follows are binders tested against T2, human BLyS (full length, arginine to …) (assay: flow cytometry, CHO-K1 hBLyS cells, antibody 13.3 nM).
Description: as §1
B1 showed an MFI of 371 MFI.
Binder B2 has an MFI of 498 MFI.
For B3, the MFI was 336 MFI.

Molecular target: T1, cynomolgus BLyS (full length, arginine …)
Assay: flow cytometry, CHO-K1 cynoBLyS cells, antibody 13.3 nM
Description: as §1
B1 showed an MFI of 738 MFI.
With B2 the MFI was 978 MFI.
For B3, the MFI was 636 MFI.

What follows are binders tested against T2, human BLyS (full length, arginine to …) (assay: flow cytometry, CHO-K1 hBLyS cells, antibody 0.00427 nM).
Description: as §1
With B1 the MFI was 33.2 MFI.
B2 gave an MFI of 46.8 MFI.
With B3 the MFI was 39.5 MFI.

Molecular target: T1, cynomolgus BLyS (full length, arginine …)
Assay: flow cytometry, CHO-K1 cynoBLyS cells, antibody 0.534 nM
Description: as §1
For B1, the MFI was 213 MFI.
B2 showed an MFI of 808 MFI.
B3 was tested, and the MFI was 480 MFI.

Molecular target: T1, cynomolgus BLyS (full length, arginine …)
Assay: flow cytometry, CHO-K1 cynoBLyS cells, antibody 66.7 nM
Description: as §1
Work on B1 yielded an MFI of 842 MFI.
B2 was tested, and the MFI was 1030 MFI.
With B3 the MFI was 664 MFI.

Molecular target: T1, cynomolgus BLyS (full length, arginine …)
Assay: flow cytometry, CHO-K1 cynoBLyS cells, antibody 2.67 nM
Description: as §1
Work on B1 yielded an MFI of 518 MFI.
With B2 the MFI was 933 MFI.
Binder B3 has an MFI of 594 MFI.

Molecular target: T1, cynomolgus BLyS (full length, arginine …)
Assay: flow cytometry, CHO-K1 cynoBLyS cells, antibody 0.107 nM
Description: as §1
B1 gave an MFI of 76.6 MFI.
B2 showed an MFI of 349 MFI.
B3 was tested, and the MFI was 235 MFI.

Molecular target: T1, cynomolgus BLyS (full length, arginine …)
Assay: flow cytometry, CHO-K1 cynoBLyS cells, antibody 0.0213 nM
Description: as §1
Work on B1 yielded an MFI of 35.3 MFI.
B2 showed an MFI of 118 MFI.
B3 gave an MFI of 106 MFI.

Each binder was assayed against mouse BLyS protein (mouse, UniProt Q9WU72 69-309) (assay: cell-based or functional assay).
mouse BLyS protein, sequence (Q9WU72 69-309): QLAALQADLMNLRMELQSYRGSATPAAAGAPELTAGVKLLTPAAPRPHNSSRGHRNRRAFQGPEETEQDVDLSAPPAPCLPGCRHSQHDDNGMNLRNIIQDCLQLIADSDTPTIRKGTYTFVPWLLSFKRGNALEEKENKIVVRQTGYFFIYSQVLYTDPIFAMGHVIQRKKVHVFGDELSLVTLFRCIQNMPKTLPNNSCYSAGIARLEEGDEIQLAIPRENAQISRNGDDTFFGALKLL
In the case of B1, the “mouse B lymphocyte proliferation (OD450 nm), antibody 0 nM” value is reported as 2120 OD450 nm, the “mouse B lymphocyte proliferation (OD450 nm), antibody 0.000256 nM” value is reported as 2390 OD450 nm and the “mouse B lymphocyte proliferation (OD450 nm), antibody 0.00128 nM” value is reported as 2200 OD450 nm. The “mouse B lymphocyte proliferation (OD450 nm), antibody 0.0064 nM” value was 2110 OD450 nm, the “mouse B lymphocyte proliferation (OD450 nm), antibody 0.032 nM” value was 2260 OD450 nm and the “mouse B lymphocyte proliferation (OD450 nm), antibody 0.16 nM” value was 2330 OD450 nm. For the same binder, the “mouse B lymphocyte proliferation (OD450 nm), antibody 0.8 nM” value was 2490 OD450 nm, the “mouse B lymphocyte proliferation (OD450 nm), antibody 4 nM” value was 2410 OD450 nm and the “mouse B lymphocyte proliferation (OD450 nm), antibody 20 nM” value was 2240 OD450 nm. The “mouse B lymphocyte proliferation (OD450 nm), antibody 100 nM” value was 2070 OD450 nm.
With B2 the “mouse B lymphocyte proliferation (OD450 nm), antibody 0 nM” value was 2260 OD450 nm, the “mouse B lymphocyte proliferation (OD450 nm), antibody 0.000256 nM” value was 2090 OD450 nm and the “mouse B lymphocyte proliferation (OD450 nm), antibody 0.00128 nM” value was 2170 OD450 nm. For the same binder, the “mouse B lymphocyte proliferation (OD450 nm), antibody 0.0064 nM” value was 2180 OD450 nm, the “mouse B lymphocyte proliferation (OD450 nm), antibody 0.032 nM” value was 2380 OD450 nm and the “mouse B lymphocyte proliferation (OD450 nm), antibody 0.16 nM” value was 2120 OD450 nm. For the same binder, the “mouse B lymphocyte proliferation (OD450 nm), antibody 0.8 nM” value was 2480 OD450 nm, the “mouse B lymphocyte proliferation (OD450 nm), antibody 4 nM” value was 2200 OD450 nm and the “mouse B lymphocyte proliferation (OD450 nm), antibody 20 nM” value was 2240 OD450 nm. The “mouse B lymphocyte proliferation (OD450 nm), antibody 100 nM” value was 1920 OD450 nm.
For B3, the “mouse B lymphocyte proliferation (OD450 nm), antibody 0 nM” value was 1990 OD450 nm, the “mouse B lymphocyte proliferation (OD450 nm), antibody 0.000256 nM” value was 2210 OD450 nm and the “mouse B lymphocyte proliferation (OD450 nm), antibody 0.00128 nM” value was 2380 OD450 nm. For the same binder, the “mouse B lymphocyte proliferation (OD450 nm), antibody 0.0064 nM” value was 2240 OD450 nm, the “mouse B lymphocyte proliferation (OD450 nm), antibody 0.032 nM” value was 2390 OD450 nm and the “mouse B lymphocyte proliferation (OD450 nm), antibody 0.16 nM” value was 2410 OD450 nm. The “mouse B lymphocyte proliferation (OD450 nm), antibody 0.8 nM” value was 2510 OD450 nm, the “mouse B lymphocyte proliferation (OD450 nm), antibody 4 nM” value was 2340 OD450 nm and the “mouse B lymphocyte proliferation (OD450 nm), antibody 20 nM” value was 2470 OD450 nm. The “mouse B lymphocyte proliferation (OD450 nm), antibody 100 nM” value was 2480 OD450 nm.

These binders were tested against T2, human BLyS (full length, arginine to …) (assay: flow cytometry, CHO-K1 hBLyS cells, antibody 2.67 nM).
Description: as §1
B1 gave an MFI of 279 MFI.
B2 showed an MFI of 474 MFI.
Work on B3 yielded an MFI of 300 MFI.

What follows are binders tested against T2, human BLyS (full length, arginine to …) (assay: flow cytometry, CHO-K1 hBLyS cells, antibody 0.107 nM).
Description: as §1
B1 showed an MFI of 60 MFI.
Work on B2 yielded an MFI of 194 MFI.
B3 gave an MFI of 132 MFI.

The binders below were run against T2, human BLyS (full length, arginine to …) (assay: flow cytometry, CHO-K1 hBLyS cells, antibody 0.534 nM).
Description: as §1
B1 showed an MFI of 129 MFI.
For B2, the MFI was 402 MFI.
B3 showed an MFI of 249 MFI.

What follows are binders tested against T2, human BLyS (full length, arginine to …) (assay: flow cytometry, CHO-K1 hBLyS cells, antibody 66.7 nM).
Description: as §1
Work on B1 yielded an MFI of 432 MFI.
In the case of B2, the MFI is reported as 535 MFI.
B3 gave an MFI of 356 MFI.
